Test results: the supplement of paper PMC9170038

Test system: MS2 coat protein
Experiment: apparent KD of MS2 coat protein; designed switch direction (-1 OFF switch, 1 ON switch): 1; higher = weaker reporter binding
How it was run: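 Designed RNA switches sharing common flanks were transcribed on Illumina chips by stalled E. coli RNA polymerase. They were titrated with SNAP-549-labelled MS2 coat protein, from 0.7 or 1.5 nM doubling to 3 µM, in Tris-HCl pH 7.5 buffer with KCl, MgCl2, BSA, DTT, tRNA and Tween-20. Titrations ran without input, with 200 uM small-molecule ligand, or with an oligonucleotide input. The apparent KD of each design is the median over its clusters, after curve-fitting of normalised cluster fluorescence.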

[1] = input ligand: microRNA oligo, concentration not stated
[2] = Eterna round: R95, input ligand: FMN 200 uM
[3] = Eterna round: R95, input ligand: microRNA oligo, concentration not stated
[4] = Eterna round: R95, input ligand: none

Sequence	apparent KD of MS2 coat protein (input ligand: FMN 200 uM)	apparent KD of MS2 coat protein [1]	apparent KD of MS2 coat protein (input ligand: none)	apparent KD of MS2 coat protein [2]	apparent KD of MS2 coat protein [3]	apparent KD of MS2 coat protein [4]
UUACCGCGGGUAGGAUAUGGUCACACUUCUAAAACAUGAGGAUCACCCAUGUCCGACACAUAAAGCCAGAAGGACCCGCGGCUC [Esbea] (Eterna round: R96, puzzle: Same State NG 2)	0.0208 µM	0.0485 µM	0.0714 µM			
UUACGUACGUAUGAGGAUAUCCAUAAUAAGACAUGAGGAUCACCCAUGUAAACAAAACAAUAAUGGGAGAAGGCAUACGUACGAA [Mat - Same state - Malcolm Mod - D135] (Eterna round: R96, puzzle: Same State 2)		0.053 µM				
UUACUCAUGUAAGGAUAUGCAGCCGAAACGGCUGCAGAAGGUACUAAAAUACAUGAGGAUCACCCAUGUCUAAUUAAUUAAGAC [Mat - Same State NG 1 - JL mod - D84] (Eterna round: R96, puzzle: Same State NG 1)	0.139 µM	0.0363 µM	0.0665 µM			
UUACUCAUGUAAGGAUAUGCAGCCGAAACGGCUGCAGAAGGUACUAUAAUACAUGAGGAUCACCCAUGUCUCUAUUAUAAAGUU [Mat - Same State NG 1 - JL mod - D95] (Eterna round: R96, puzzle: Same State NG 1)	0.0948 µM	0.0434 µM	0.0495 µM			
UUAUAACAUGAGGAUCACCCAUGUCAACAAAGUCGAGGAUAUGGGCAAGAAUUGAGAGAACCAGAAGGCGAAUAUU [Mat - Same State 1 - Mod of UCT - D31] (puzzle: Same State 1)				0.0784 µM	0.131 µM	0.148 µM
UUAUAACAUGAGGAUCACCCAUGUCAACAAAGUCGAGGAUAUGGGCAGAGAGGAGAAGAACCAGAAGGCGAAUAUU [Mat - Same State 1 - Mod of UCT - D38] (puzzle: Same State 1)				0.0912 µM	0.0984 µM	0.0949 µM
UUAUAACAUGAGGAUCACCCAUGUCAUCUAAGUCGAGGAUAUGGGAAUUAAUUAAUUAAACCAGAAGGCGAAAAUU [Mat - Same State 1 - D91] (puzzle: Same State 1)				0.16 µM	0.149 µM	0.783 µM
UUAUCCUUUUUUUACAUGAGGAUCACCCAUGUUUUUCUUACGUAGGAUAUCGUUGUUUUUUUUUACGAGAAGGACGUAGUAAGA [JR_SSND3_Sub061] (Eterna round: R96, puzzle: Same State NG 3)	0.0413 µM	0.0319 µM	0.0371 µM			
UUAUUAUAUAUAGGAUAUUGAUGUAAUUUAUUUCAAGAAGGAUAUACAUGAGGAUCACCCAUGUUGGAUAGGGUUAGUUUGUUU [JR_SSNG1_Sub079] (Eterna round: R96, puzzle: Same State NG 1)		0.074 µM				
UUAUUAUUUACAUGAGGAUCACCCAUGUUUUUAUGUCAGAGACAGGAUAUAGUAGUCUCGUUUUACUAGAAGGGUCUUUUUAUU [JR_SSNG3_Sub017] (Eterna round: R96, puzzle: Same State NG 3)	0.0152 µM	0.0189 µM	0.0221 µM			
UUAUUAUUUAUAGGAUAUUGAUGUUUGCUAGUACAAGAAGGAUAAACAUGAGGAUCACCCAUGUAGUUUAAGGUUAGUUUGUUU [JR_SSNG1_Sub078] (Eterna round: R96, puzzle: Same State NG 1)		0.0252 µM				
UUCAACUGAGGAGGAUAUGCAGAGGAUCACCCUGUAGAAGGCCUCGAAAGGAGGAUAUGCAGAGGAUCACCCUGUAGAAGGCCU [pwkr ssNG DX.19] (Eterna round: R96, puzzle: Same State NG 1)	0.417 µM	0.148 µM	0.132 µM			
UUCACCUUAUUUUACAUGAGGAUCACCCAUGUUUUCCCUACGUAGGAUAUCGAUGCUUGAUUGUUCGAGAAGGACGAUGUAAGU [JR_SSND3_Sub055] (Eterna round: R96, puzzle: Same State NG 3)	0.0334 µM	0.0217 µM	0.0333 µM			
UUCACCUUAUUUUACAUGAGGAUCACCCAUGUUUUUUUUACGUAGGAUAUCGAUGCUUGAUUGUUCGAGAAGGACGAUGUAAGU [JR_SSND3_Sub054] (Eterna round: R96, puzzle: Same State NG 3)	0.0273 µM	0.0243 µM	0.0311 µM			
UUCCUUCUCGUAGGAUAUGUAGGAUAUUCCUACAUGAGGAUCACCCAUGUUCGCAUGGAAGAAGGACAGAAGGACGAUCACCCU [pwkr ssNG2 2FMN + 1F5.11] (Eterna round: R96, puzzle: Same State NG 2)	0.0913 µM	0.0743 µM	0.0985 µM			
UUCUCCUUUUUUUACAUGAGGAUCACCCAUGUUUUUCUUACGUAGGAUAUCGUUGAGUGUUUGUACGAGAAGGACGUAGUAAGU [JR_SSND3_Sub059] (Eterna round: R96, puzzle: Same State NG 3)	0.0379 µM	0.0505 µM	0.0679 µM			
UUCUCUUUUUAGAGACAAGCUUUUUGAUCACAUGAGGAUCACCCAUGUCUCGUCUUAUGAUUUACUUCGUUAUUUCU [BA Sensor hsa-mir-208a - 2 - 6] (puzzle: Sensor for hsa-mir-208a)				0.16 µM	0.0156 µM	0.125 µM
UUGAAGAAUAUAGGAUAUUGAAUACAUAUGUUUAACAUGAGGAUCACCCAUGUGGGUUGCGGUAUCGAGAAGGAUAAAUAAUAG [Mat - Same State NG 2 - JL mod - D13] (Eterna round: R96, puzzle: Same State NG 2)	0.196 µM	0.122 µM	0.19 µM			
UUGAAGAAUAUAGGAUAUUGAAUACAUAUGUUUAACAUGAGGAUCACCCAUGUGGGUUGCGGUAUCGAGAAGGAUAAUUACUAG [Mat - Same State NG 2 - JL mod - D12] (Eterna round: R96, puzzle: Same State NG 2)	0.185 µM	0.131 µM	0.14 µM			
UUGAAGAAUUAAGGAUAUCGAGUCGUCAGAUUAAACAUGAGGAUCACCCAUGUGGGUUGCGGUAUCGAGAAGGUAAAUUACAAG [JL JR Sub099 mod 2] (Eterna round: R96, puzzle: Same State NG 2)	0.0205 µM	0.0272 µM	0.0399 µM			
UUGAAGAAUUAAGGAUAUCGAGUCGUCAGAUUAUACAUGAGGAUCACCCAUGUGGGUUGCGGUAUCGAGAAGGUAAAUUACAAG [JL JR Sub099 mod 5] (Eterna round: R96, puzzle: Same State NG 2)	0.0375 µM	0.0584 µM	0.06 µM			
UUGAAGAAUUAAGGAUAUUGAAUACAUAUGUUUAACAUGAGGAUCACCCAUGUGGGUUGCGGUAUCGAGAAGGUAAAUAAAUAG [Mat - Same State NG 2 - JL mod - D3] (Eterna round: R96, puzzle: Same State NG 2)	0.169 µM	0.11 µM	0.159 µM			
UUGAAGAAUUAAGGAUAUUGAAUACAUAUGUUUAACAUGAGGAUCACCCAUGUGGGUUGCGGUAUCGAGAAGGUAAAUUAAAAG [Mat - Same State NG 2 - JL mod - D2] (Eterna round: R96, puzzle: Same State NG 2)	0.142 µM	0.179 µM	0.131 µM			
UUGAAGAAUUAAGGAUAUUGAGUACAUAUGUUUAACAUGAGGAUCACCCAUGUGGGUUGCGGUAUCGAGAAGGUAAAUUACUAG [JL SSNG2 1.45] (Eterna round: R96, puzzle: Same State NG 2)	0.0912 µM	0.0761 µM	0.155 µM			
UUGAAGAAUUAAGGAUAUUGAUUACAUAUGUUUAACAUGAGGAUCACCCAUGUGGGUUGCGGUAUCGAGAAGGUAAAUUACUAG [JL SSNG2 1.47] (Eterna round: R96, puzzle: Same State NG 2)	0.137 µM	0.122 µM	0.162 µM			
UUGAAUAAUUAAGGAUAUCGAGUCAAGAUGUUAAACAUGAGGAUCACCCAUGUGGGUUGCGGUAUCGAGAAGGUAAAUAAUAAG [Mat - Same State NG 2 - JL mod - D56] (Eterna round: R96, puzzle: Same State NG 2)	0.0386 µM	0.0288 µM	0.0365 µM			
UUGAUUAGAAAUUAACAUGAGGAUCACCCAUGUAUUGGAUCAGAGGAUAUGCAUGUUUGAUAGUAGCAGAAGGCUGAUGGUGGA [JR_SSNG3_Sub027] (Eterna round: R96, puzzle: Same State NG 3)	0.0683 µM	0.0442 µM	0.0458 µM			
